The source of these data is paper PMC3097154, “Antiviral activity of α-helical stapled peptides designed from the HIV-1 capsid dimerization domain” (Retrovirology, 2011).

Experiment [1] addresses C-terminal domain (CTD) of HIV-1 capsid (CA), wild type (HIV-1 (strain NL4-3)). Put plainly: ITC; Ki worked out from the rise of the apparent dimer dissociation constant of CTD with the NYAD-203 concentration, extrapolated to low (zero) peptide concentration; pH 7.3, 30 C.
Experiment [2] has the same target. The description is as above. The source holds these as a separate data set.
Experiment [3] has the same target. Put plainly: NMR titration.
Experiment [4] has the same target. Put plainly: ITC; dilution of CTD (ca. 250 uM in the syringe, 10 ul injections) into buffer without peptide; 25 mM sodium phosphate pH 7.3, 30 C; dimer to monomers.
The target is the same in experiment [5]. Put plainly: ITC; dilution of CTD (ca. 250 uM) into buffer with 200 uM NYAD-203; 25 mM sodium phosphate pH 7.3, 30 C; apparent; dimer to monomers.
Experiment [6] shares this target. Put plainly: ITC; dilution of CTD (ca. 250 uM) into buffer with 350 uM NYAD-203; 25 mM sodium phosphate pH 7.3, 30 C; apparent; dimer to monomers. On the technique in general: Isothermal titration calorimetry measures the heat released or taken up as one component is titrated into another.
For experiment [7] the target is unchanged. Put plainly: ITC; dilution of CTD (ca. 250 uM) into buffer with 50 uM NYAD-203; 25 mM sodium phosphate pH 7.3, 30 C; apparent; dimer to monomers.
In experiment [8] the target is HIV-1 capsid CTD CTD (Human immunodeficiency virus 1) (UniProt O93182). As to conditions: cited from earlier work.
Experiment [9] concerns the target HIV-1 capsid CA (Human immunodeficiency virus 1) (UniProt O93182). As to conditions: cited from earlier work.

Read-outs that look alike come from different tables or passages of the source. Where only a bound is given, the exact number is not on record here.

Sequence of CAC1 peptide (O93182 307-326): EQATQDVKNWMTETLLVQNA
Sequence of HIV-1 capsid CA (O93182 133-363): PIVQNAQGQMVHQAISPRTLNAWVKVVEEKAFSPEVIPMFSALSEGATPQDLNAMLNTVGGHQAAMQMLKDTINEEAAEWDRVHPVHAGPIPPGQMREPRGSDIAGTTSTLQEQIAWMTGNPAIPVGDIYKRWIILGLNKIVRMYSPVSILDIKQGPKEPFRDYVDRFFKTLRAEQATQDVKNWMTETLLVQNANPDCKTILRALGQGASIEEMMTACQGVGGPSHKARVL
Sequence of HIV-1 capsid CTD CTD (Human immunodeficiency virus 1) (O93182 278-363): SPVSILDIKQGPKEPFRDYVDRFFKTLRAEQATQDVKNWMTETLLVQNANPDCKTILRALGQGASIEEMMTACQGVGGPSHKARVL

As usually defined, the Kd is a measure of binding affinity in units of concentration. Turning to “NYAD-203, hydrocarbon-stapled dimer interface peptide, soluble analog of NYAD-201”, the Ki in [1] was 45 µM; in experiment [2], 40 µM. In experiment [3], this substance had a Kd of under 10 µM.

With “C-terminal domain (CTD) of HIV-1 capsid (CA), wild type (domain or fragment)”, in experiment [4], the dissociation constant (Kd) was 15.3 µM and the dH of dimer dissociation came to 44.8 kJ/mol. Further, in experiment [5], the apparent K diss with 200 uM NYAD-203 was 33.2 µM and the apparent dH of dimer dissociation with 200 uM NYAD-203 is 45.2 kJ/mol. In addition, in experiment [6], the apparent K diss with 350 uM NYAD-203 was 40.5 µM and the apparent dH of dimer dissociation with 350 uM NYAD-203 stood at 45.6 kJ/mol. In experiment [7], the apparent K diss with 50 uM NYAD-203 is 31.2 µM and the apparent dH of dimer dissociation with 50 uM NYAD-203 turned out to be 38.1 kJ/mol.

As to CAC1 peptide (from UniProt O93182), in experiment [8], the dissociation constant (Kd) is 50 µM.

For the substance HIV-1 capsid CA (from UniProt O93182), the Kd in [9] was 18 µM.
